Assay results from IntAct's records for PubMed 29039417.

B1: Isoform 2 of Bardet-Biedl syndrome 7 protein (Homo sapiens), Q8IWZ6-2 (parent)
chain: MDLILNRMDYLQVGVTSQKTMKLIPASRHRATQKVVIGDHDGVVMCFGMKKGEAAAVFKTLPGPKIARLELGGVINTPQEKIFIAAASEIRGFTKRGKQFLSFETNLTESIKAMHISGSDLFLSASYIYNHYCDCKDQHYYLSGDKINDVICLPVERLSRITPVLACQDRVLRVLQGSDVMYAVEVPGPPTVLALHNGNGGDSGEDLLFGTSDGKLALIQITTSKPVRKWEIQNEKKRGGILCIDSFDIVGDGVKDLLVGRDDGMVEVYSFDNANEPVLRFDQMLSESVTSIQGGCVGKDSYDEIVVSTYSGWVTGLTTEPIHKESGPGEELKINQEMQNKISSLRNELEHLQYKVLQERENYQQSSQSSKAKSAVPSFGINDKFTLNKDDASYSLILEVQTAIDNVLIQSDVPIDLLDVDKNSAVVSFSSCDSESNDNFLLATYRCQADTTRLELKIRSIEGQYGTLQAYVTPRIQPKTCQVRQYHIKPLSLHQRTHFIDHDRPMNTLTLTGQFSFAEVHSWVVFCLPEVPEKPPAGECVTFYFQNTFLDTQLESTYRKGEGVFKSDNISTISILKDVLSKEATKRKINLNISYEINEVSVKHTLKLIHPKLEYQLLLAKKVQLIDALKELQIHEGNTNFLIPEYHCILEEADHLQEEYKKQPAHLERLYG
partner: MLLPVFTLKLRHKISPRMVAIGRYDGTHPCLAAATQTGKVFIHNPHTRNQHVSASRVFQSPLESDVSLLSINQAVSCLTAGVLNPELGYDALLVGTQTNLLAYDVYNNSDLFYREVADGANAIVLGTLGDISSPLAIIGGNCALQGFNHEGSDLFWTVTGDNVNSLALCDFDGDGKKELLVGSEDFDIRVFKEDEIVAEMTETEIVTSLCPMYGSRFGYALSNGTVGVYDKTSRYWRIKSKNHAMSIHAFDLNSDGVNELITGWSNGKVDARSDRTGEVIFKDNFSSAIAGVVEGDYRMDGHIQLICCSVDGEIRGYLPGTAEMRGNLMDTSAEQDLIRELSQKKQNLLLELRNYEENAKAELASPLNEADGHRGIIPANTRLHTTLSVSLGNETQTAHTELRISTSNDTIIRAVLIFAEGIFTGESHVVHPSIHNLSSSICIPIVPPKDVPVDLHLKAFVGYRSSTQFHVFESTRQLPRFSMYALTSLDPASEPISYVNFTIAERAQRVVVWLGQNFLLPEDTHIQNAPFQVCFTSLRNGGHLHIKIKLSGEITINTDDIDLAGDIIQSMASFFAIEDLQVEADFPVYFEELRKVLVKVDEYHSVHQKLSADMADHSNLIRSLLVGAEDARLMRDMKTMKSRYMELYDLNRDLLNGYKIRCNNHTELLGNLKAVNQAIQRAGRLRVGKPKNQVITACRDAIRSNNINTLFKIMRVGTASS

Variants of: B1
Details: with bbs2_human BBS2, Q9BXC9

Row | effect of a mutation on the interaction | Variant
1 | with no effect | S594E
2 | with no effect | I626K
3 | with no effect | H610A
4 | with no effect | H610E
5 | with no effect | R587A
6 | with no effect | S581K
7 | with no effect | A628E
8 | with no effect | V623A
9 | with no effect | I609K
10 | with no effect | I593E
11 | with no effect | K612E
12 | with no effect | K612A
13 | with no effect | L632E
14 | with no effect | L625A
15 | with no effect | N592A
16 | with no effect | N592K
17 | with no effect | N592E
18 | with no effect | V602E
19 | with no effect | V602A
20 | with no effect | E596A
21 | with no effect | H604K
22 | with no effect | Q624A
23 | disrupting interaction strength | Q624L
24 | with no effect | A584E
25 | with no effect | K603E

Row | effect of a mutation on the interaction | Variant
26 | with no effect | D627E
27 | with no effect | D627K
28 | with no effect | T585K
29 | with no effect | K586A
30 | with no effect | L642A
31 | with no effect | L642E
32 | with no effect | L642K
33 | with no effect | L608A
34 | with no effect | L608K
35 | with no effect | Q633E
36 | with no effect | L591A
37 | with no effect | L591K
38 | with no effect | T639E
39 | with no effect | K630E
40 | with no effect | N590A
41 | with no effect | G637E
42 | with no effect | E631K
43 | with no effect | H635E
44 | with no effect | E599A
45 | with no effect | L618E
46 | with no effect | L629K
47 | with no effect | I643E
48 | with no effect | Y615A
49 | with no effect | K582E
50 | with no effect | K582A

Row | effect of a mutation on the interaction | Variant
51 | with no effect | L606E
52 | with no effect | L606K
53 | with no effect | L580E
54 | with no effect | V600K
55 | with no effect | V600A
56 | with no effect | K621E
57 | with no effect | K621A
58 | with no effect | N638E
59 | with no effect | N638K
60 | with no effect | T605K
61 | with no effect | T605E
62 | with no effect | I634K
63 | with no effect | K588A
64 | disrupting interaction strength | Q616D
65 | with no effect | Q616E
66 | disrupting interaction strength | E614A
67 | with no effect | N640K
68 | with no effect | N640A
69 | with no effect | N598K
70 | with no effect | N598E
71 | with no effect | L617K
72 | with no effect | L617E
73 | with no effect | L619A
74 | with no effect | L619K

The next lines start with the variant.

Row | Variant | effect of a mutation on the interaction
75 | S594K | with no effect
76 | S594A | with no effect
77 | I626E | with no effect
78 | I626A | with no effect
79 | H610K | with no effect
80 | I589A | with no effect
81 | I589E | with no effect
82 | I589K | with no effect
83 | R587E | with no effect
84 | R587K | with no effect
85 | S581A | with no effect
86 | S581E | with no effect
87 | A628K | with no effect
88 | V623K | with no effect
89 | V623E | with no effect
90 | I609E | with no effect
91 | I609A | with no effect
92 | I593K | with no effect
93 | I593A | with no effect
94 | L632A | with no effect
95 | L632K | with no effect
96 | L625K | with no effect
97 | L625E | with no effect

Row | Variant | effect of a mutation on the interaction
98 | Y595E | with no effect
99 | Y595K | with no effect
100 | Y595A | with no effect
101 | P611K | with no effect
102 | P611A | with no effect
103 | P611E | with no effect
104 | V602K | with no effect
105 | I597A | with no effect
106 | I597K | with no effect
107 | I597E | with no effect
108 | E596K | with no effect
109 | K607A | with no effect
110 | K607E | with no effect
111 | H604E | with no effect
112 | H604A | with no effect
113 | Q624K | with no effect
114 | Q624S | disrupting interaction strength
115 | Q624Y | disrupting interaction strength
116 | Q624E | with no effect
117 | A584K | with no effect
118 | K603A | with no effect
119 | D627A | with no effect
120 | E583K | with no effect

Row | Variant | effect of a mutation on the interaction
121 | E583A | with no effect
122 | T585A | with no effect
123 | T585E | with no effect
124 | S601E | with no effect
125 | S601K | with no effect
126 | S601A | with no effect
127 | Y646A | with no effect
128 | Y646E | with no effect
129 | Y646K | with no effect
130 | E636K | with no effect
131 | E636A | with no effect
132 | K586E | with no effect
133 | L608E | with no effect
134 | Q633K | with no effect
135 | Q633A | with no effect
136 | L591E | with no effect
137 | T639A | with no effect
138 | T639K | with no effect
139 | K630A | with no effect
140 | K622E | with no effect
141 | K622A | with no effect
142 | N590E | with no effect
143 | N590K | with no effect

Row | Variant | effect of a mutation on the interaction
144 | L613A | with no effect
145 | L613K | with no effect
146 | L613E | with no effect
147 | G637K | with no effect
148 | G637A | with no effect
149 | E631A | with no effect
150 | H635K | with no effect
151 | H635A | with no effect
152 | E599K | with no effect
153 | A620K | with no effect
154 | A620E | with no effect
155 | E645K | with no effect
156 | E645A | with no effect
157 | L618K | with no effect
158 | L618A | with no effect
159 | L629A | with no effect
160 | L629E | with no effect
161 | I643A | with no effect
162 | I643K | with no effect
163 | Y615E | with no effect
164 | Y615K | with no effect
165 | L606A | with no effect
166 | L580K | with no effect

Row | Variant | effect of a mutation on the interaction
167 | V600E | with no effect
168 | F641K | with no effect
169 | F641E | with no effect
170 | F641A | with no effect
171 | N638A | with no effect
172 | T605A | with no effect
173 | I634E | with no effect
174 | I634A | with no effect
175 | P644E | with no effect
176 | P644A | with no effect
177 | P644K | with no effect
178 | K588E | with no effect
179 | Q616A | with no effect
180 | Q616K | with no effect
181 | E614K | with no effect
182 | N640E | with no effect
183 | N598A | with no effect
184 | L617A | with no effect
185 | L619E | with no effect
